# Laboratory results taken from publication PMC9622777, “Eradication of tumors and development of anti-cancer immunity using STINGa targeted by pHLIP” (Frontiers in Oncology, 2022).
# Where a SMILES comes first, the peptide text is derived from it. [ ]: non-standard residue; d: D form. The star is where a group is joined. X1 = CCn1nc(C)cc1C(=O)Nc1nc2cc(C(N)=O)cc(OC)c2n1C/C=C/Cn1c(NC(=O)c2cc(C)nn2CC)nc2cc(C(N)=O)cc(OCCC[N+]3(Cc4ccc(NC(=O)OCCS*)cc4)CCOCC3)c21
# Columns and labels:
# [1] = Stability in mouse plasma; type: in vitro ADME
# Method: (§1) To establish the stability of pHLIP(Laa)-STINGa and pHLIP(Daa)-STINGa in plasma, pHLIP-STINGa was mixed with single donor human or BALB/c mouse plasma (Innovative Research) at a concentration of 200 μM, and kept in plasma for 0, 2, 4 or 24 hours at 37°C. Plasma proteins were precipitated by methanol (1:5 volume ratio of plasma to methanol) and centrifugated for 10 min at […]. The supernatant was collected and analyzed by HPLC using a Zorbax SB-C18 4.6 × 250 mm, 5 μm column with a gradient from 10% to 75% acetonitrile in water containing 0.05% TFA. Chromatograms were recorded at 220 nm, 280 nm and 320 nm. As controls pHLIP(Laa), pHLIP(Daa), Pys-PAB-STINGa, SH-PAB-STINGa, where Pys-PAB-STINGa was conjugated with a Cys residue, and diABZI (In vivogen) were analyzed for stability in plasma under the same conditions.
# [2] = Stability in human plasma; type: in vitro ADME
# Method: as §1
# [3] = system: mouse plasma proteins; assay: Binding to mouse plasma proteins (plasma stability study); type: in vitro ADME; settings: BALB/c mouse plasma, 200 μM, 37°C, HPLC
# Method: as §1
# [4] = system: human plasma proteins; assay: Binding to human plasma proteins (plasma stability study); type: in vitro ADME; settings: for amount of product bound to plasma proteins (in brackets): single donor human plasma, 200 μM, 37°C, HPLC
# Method: as §1
# [5] = system: tumor stroma and immune cells within CT26 tumors; assay: FACS analysis of uptake by tumor stroma and immune cells within CT26 tumors; settings: mouse, in vivo, ip
# Method: Animal studies on mice were conducted at the Charles River Discovery Service in compliance with the principles and procedures outlined by the National Institutes of Health for the care and use of animals. Uptake of Al647-pHLIP(Laa)-STINGa by tumor cells within CT26 tumors was analyzed by fluorescence activated cell sorting (FACS) analysis. […] When tumors reached 150-250 mm^3 in volume mice were separated into two groups. Eight mice from the treated group #1 received a single IP injection of Al647-pHLIP(Laa)-STINGa (300 µM 100 µl), and five mice from the control group #2 received single IP injection of vehicle (1% DMSO in PBS). 24 hours later all animals were euthanized, and tumors were collected for processing. Tumor stroma and immune cells were identified using the following markers:
# • CD4 T cells: CD45^+, CD3^+, CD11b^-, CD4^+, CD8^- • CD8 T cells: CD45^+, CD3^+, CD11b^-, CD4^-, CD8^+ • Treg: CD45^+, CD3^+, CD11b^-, CD4^+, CD25^+, FoxP3^+ • mMDSC: CD45^+, CD3^-, CD11b^+, F4/80^-, Ly6C^high, Ly6G^- • gMDSC: CD45^+, CD3^-, CD11b^+, F4/80^-, Ly6C^low, Ly6G^+ • M1: CD45^+, CD11b^+, F4/80^+, CD206^- • M2: CD45^+, CD11b^+, F4/80^+, CD206^+ • DC: CD45^+, CD11b^+, CD11c^+, MHCII^+, F4/80^- • CAF: CD3^-, CD45^-, CD140b^+
# The staining was performed for tumor samples, Fluorescence Minus One (FMO) controls and Single Color Controls (SCC) as indicated below:
# The following anti-mouse antibodies were used: CD45-APC-Fire750 clone 30-F11, CD8a-BV650 clone 53-6.7, CD25-BV605 clone PC61, F4/80-PE-Dazzle-594 clone BM8, Ly-6C-FITC clone HK1.4, Ly-6G-BV785 clone 1A8, CD206-BV421 clone C068C2, CD140b-PE clone APB5, CD11c-BV711 clone N418, I-A/I-E-PE/Cy7 clone M5/114.15.2 from BioLegend; CD3e-BUV496 clone 145-2C11, CD4-BUV395 clone GK1.5; CD11b-BUV737 clone M1/70 from BD Biosciences, FoxP3 PerCP-Cy5.5 clone FJK-16s from Thermo Fisher and Live/Dead Aqua-V500 from Life Technologies. The procedure for tumor processing was the following: tumor samples were dissociated according to the manufacturer’s instructions using the gentleMACS™ protocol “Tumor Dissociation Kit”. Samples were filtered through a 70 µm cell strainer and rinsed twice in PBS/2.5% FBS buffer and total sample volumes were measured. Single cell suspensions were prepared in PBS pH 7.4 at 1x10^7 cells/mL and placed into individual wells of a 96-well plate and kept on ice. All incubation steps were carried out protected from light. The washing was performed by spinning the plate at 300x g (or 400x g) for 3 minutes and discarding the supernatant. Live/Dead reagent was added to each sample and incubated at 4°C for 15 minutes followed by washing. […]
# [6] = mouse, in vivo, iv
# Method: (§2) For pharmacokinetics (PK), biodistribution, pH imaging studies and immunohistochemistry, 5x10^4 of CT26 cancer cells were injected SQ in 100 µl of growth medium into the right flank of female Balb/c mice and tumors were grown until they reached 150-200 mm^3 in volume. […] Animals were euthanized at 2, 4, 24, 48, 72 and 96 hours post-injection, blood was collected in K2 EDTA vacutainer blood collection tubes (BD), and necropsy was performed immediately after euthanization. Blood, tumors and major organs (kidney, liver, spleen, pancreas, lung, heart, large and small intestines, bone, muscle, brain) were collected, and imaged ex vivo immediately after necropsy. Blood (150 µl) was imaged in 96-well plate with black bottom and walls. […] The fluorescence at zero-time point was taken as 100% and fluorescence recorded at 2, 4, 24 and 48 hrs p.i. were calculated as a percentage of zero-time point signal. […]
# (§3) The in vivo and ex vivo bright field and near-infrared fluorescent imaging was performed using a Stryker 1588 AIM endoscopic system with L10 AIM Light Source (808 nm excitation and collection of light in the range of approximately of 815 to 850 nm), and a 1588 AIM Camera using a 10 mm scope. […] The calculated total fluorescence intensity and total area of each organ were used to calculate the mean organ fluorescence.
# [7] = system: CT26 tumor; settings: mouse, in vivo
# Method: as §2, §3
# [8] = system: CT26 tumors; assay: Treatment of small (100 mm^3) CT26 tumors in Balb/c mice; type: in vivo, mouse; settings: single injection, same molar dose level as pHLIP-STINGa
# Method: On day 1, when tumors reached size of 100 mm^3 (“small tumors”) or 400-700 mm^3 (“large tumors”), mice were randomized into groups, body weight was measured and agents including pHLIP(Laa)-STINGa, pHLIP(Daa)-STINGa, pHLIP(Laa), STINGa (diABZI) or vehicle were given as a single intraperitoneal (IP) or intravenous (IV) injection. Vehicle, pHLIP(Laa), STINGa (diABZI) and pHLIP(Laa)-STINGa were given as a single IP injection of 100 μM 300 µl. pHLIP(Daa)-STINGa was given as a single IV injection of 200 μM 150 μl. The compounds were dissolved in DMSO as a stock solution and transferred to 20% PEG400 in saline containing 0.9% sodium chloride (vehicle). The residual DMSO in the final solution injected into animals was less than 2%. Tumor volume and body weight were measured 3 times per week throughout the study. Measurements of tumors were performed using calipers, and the tumor volume (V) was calculated with the formula: […]
# where L is the length and W is the width of the measured tumor. Mice were removed from the study and euthanized when the tumor volume was greater than 2000 mm^3.
# [9] = STINGa on its own; ref [11]; cited from earlier work
compound,measurement,setting,value
CCn1nc(C)cc1C(=O)Nc1nc2cc(C(N)=O)cc(OC)c2n1C/C=C/Cn1c(NC(=O)c2cc(C)nn2CC)nc2cc(C(N)=O)cc(OCCC[N+]3(Cc4ccc(NC(=O)OCCSSC[C@@H](NC(=O)[C@@H](Cc5c[nH]c6ccccc56)NC(=O)[C@@H](CC(C)C)NC(=O)[C@@H](CC(C)C)NC(=O)[C@@H](CC(=O)O)NC(=O)[C@@H](CC(C)C)NC(=O)[C@@H](CC(C)C)NC(=O)[C@@H](CC(C)C)NC(=O)[C@H](NC(=O)[C@@H](CC(=O)O)NC(=O)[C@H](NC(=O)[C@H]5CCCN5C(=O)[C@@H](Cc5ccccc5)NC(=O)[C@@H](CC(C)C)NC(=O)[C@@H](CC(C)C)NC(=O)[C@@H](CC(=O)O)NC(=O)[C@@H](CC(C)C)NC(=O)[C@@H](Cc5ccc(O)cc5)NC(=O)[C@@H](C)NC(=O)[C@@H](CCCNC(=N)N)NC(=O)[C@@H](Cc5c[nH]c6ccccc56)NC(=O)[C@H]5CCCN5C(=O)[C@@H](CC(N)=O)NC(=O)[C@@H](CC(=O)O)NC(=O)[C@@H](CCC(N)=O)NC(=O)[C@@H](CC(=O)O)NC(=O)[C@@H](C)N)[C@H](C)O)[C@H](C)O)C(=O)NCC(=O)O)cc4)CCOCC3)c21 [pHLIP(Daa)-STINGa] (H-[dA][dD][dQ][dD][dN][dP][dW][dR][dA][dY][dL][dD][dL][dL][dF][dP][dT][dD][dT][dL][dL][dL][dD][dL][dL][dW][dC](X1)G-OH; N-terminus and C-terminus assumed),amount of undegraded product (free fraction),"[1]; BALB/c mouse plasma, 200 μM, 37°C, 0 h, methanol precipitation, HPLC C18, UV 220/280/320 nm",99.4%
same,"remaining at 2 h, 200 μM","[1]; BALB/c mouse plasma, 200 μM, 37°C, 2 h, methanol precipitation, HPLC C18, UV, read-out: amount of undegraded product (free fraction)",90.9%
same,"remaining at 4 h, 200 μM","[1]; BALB/c mouse plasma, 200 μM, 37°C, 4 h, methanol precipitation, HPLC C18, UV, read-out: amount of undegraded product (free fraction)",84.5%
same,"remaining at 24 h, 200 μM","[1]; BALB/c mouse plasma, 200 μM, 37°C, 24 h, methanol precipitation, HPLC C18, UV, read-out: amount of undegraded product (free fraction)",58.2%
same,modified STINGa released from pHLIP,"[1]; incubated with mouse plasma, 37°C (text summary of Table S1)",about 40%
same,"metabolised at 24 h, 200 μM","[2]; human plasma, over 24 hours, 37°C (text summary of Table S1), read-out: degradation",~10%
same,amount of undegraded product (free fraction),"[2]; single donor human plasma, 200 μM, 37°C, 0 h, methanol precipitation, HPLC C18, UV",99.4%
same,"remaining at 2 h, 200 μM","[2]; single donor human plasma, 200 μM, 37°C, 2 h, methanol precipitation, HPLC C18, UV, read-out: amount of undegraded product (free fraction)",99.2%
same,"remaining at 4 h, 200 μM","[2]; single donor human plasma, 200 μM, 37°C, 4 h, methanol precipitation, HPLC C18, UV, read-out: amount of undegraded product (free fraction)",97.6%
same,"remaining at 24 h, 200 μM","[2]; single donor human plasma, 200 μM, 37°C, 24 h, methanol precipitation, HPLC C18, UV, read-out: amount of undegraded product (free fraction)",89.6%
same,amount of product bound to plasma proteins (in brackets),[3]; 0 h,0%
same,amount of product bound to plasma proteins (in brackets),[3]; 2 h,51.7%
same,amount of product bound to plasma proteins (in brackets),[3]; 4 h,59.6%
same,amount of product bound to plasma proteins (in brackets),[3]; 24 h,75.9%
same,"binding to plasma proteins, in words","[4]; compared with the Laa version, especially human plasma proteins",much stronger binding to plasma proteins than the Laa version
same,amount of product bound to plasma proteins (in brackets),[4]; 0 h,0%
same,amount of product bound to plasma proteins (in brackets),[4]; 2 h,77.2%
same,amount of product bound to plasma proteins (in brackets),[4]; 4 h,84.4%
same,amount of product bound to plasma proteins (in brackets),[4]; 24 h,87.7%
AKDDQNPWRAYLDLLFPTDTLLLDLLWCG [Al647-pHLIP-STINGa],% of cells taken Al647-pHLIP-STINGa: CAFs,[5],74%
same,% of cells taken Al647-pHLIP-STINGa: CD8 T-cells,[5],24%
same,% of cells taken Al647-pHLIP-STINGa: DCs,[5],52%
same,% of cells taken Al647-pHLIP-STINGa: TAMs (CD206+),[5],71%
AKDDQNPWRAYLDLLFPTDTLLLDLLWCG [ICG-pHLIP-STINGa],half-life in blood,[6],8.2 h
same,persistence of fluorescence signal in the tumor,[7],8 days
diABZI [STINGa],time by which all animals developed tumors,[8],≤ 35 days p.i.
same,half-life,[9],1.4 h
